Measured values: US20190309079A1 (Regeneron, published 2019)

T1: full length human LEPR (amino acids 1-1165 of P48357, Isoform B) on cells (human, UniProt P48357 22-1165)
T1 sequence: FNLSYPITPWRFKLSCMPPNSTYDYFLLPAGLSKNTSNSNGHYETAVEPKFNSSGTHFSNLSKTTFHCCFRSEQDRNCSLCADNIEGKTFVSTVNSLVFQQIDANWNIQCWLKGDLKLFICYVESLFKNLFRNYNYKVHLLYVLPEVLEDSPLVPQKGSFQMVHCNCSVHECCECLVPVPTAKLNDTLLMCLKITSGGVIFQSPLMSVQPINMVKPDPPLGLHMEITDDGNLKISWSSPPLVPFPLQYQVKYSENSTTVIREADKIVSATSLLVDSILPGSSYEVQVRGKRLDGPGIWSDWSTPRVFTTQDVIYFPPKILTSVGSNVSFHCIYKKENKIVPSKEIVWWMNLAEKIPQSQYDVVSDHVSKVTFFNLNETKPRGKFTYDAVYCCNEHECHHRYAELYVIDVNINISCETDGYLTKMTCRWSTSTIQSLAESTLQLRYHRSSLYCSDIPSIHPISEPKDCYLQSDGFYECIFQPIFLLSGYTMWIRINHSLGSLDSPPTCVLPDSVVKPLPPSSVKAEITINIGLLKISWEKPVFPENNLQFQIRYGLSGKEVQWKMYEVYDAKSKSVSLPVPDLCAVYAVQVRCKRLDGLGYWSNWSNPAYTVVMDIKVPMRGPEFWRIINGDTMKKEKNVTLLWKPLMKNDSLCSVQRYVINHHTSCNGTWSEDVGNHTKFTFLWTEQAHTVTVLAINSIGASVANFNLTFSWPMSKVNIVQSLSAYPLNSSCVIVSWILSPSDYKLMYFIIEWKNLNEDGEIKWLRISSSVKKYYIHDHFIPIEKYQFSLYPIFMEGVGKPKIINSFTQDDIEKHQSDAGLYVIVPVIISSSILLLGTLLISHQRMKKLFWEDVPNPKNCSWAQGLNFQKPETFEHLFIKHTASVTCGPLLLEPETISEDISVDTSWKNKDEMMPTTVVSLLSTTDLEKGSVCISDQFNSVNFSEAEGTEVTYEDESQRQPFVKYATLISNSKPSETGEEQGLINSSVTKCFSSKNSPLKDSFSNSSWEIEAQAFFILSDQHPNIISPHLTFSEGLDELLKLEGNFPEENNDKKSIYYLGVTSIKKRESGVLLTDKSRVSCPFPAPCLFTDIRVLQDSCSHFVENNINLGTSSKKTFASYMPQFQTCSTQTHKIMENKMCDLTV

T2: human LEPR CRH2-MMH (human, UniProt P48357 428-634, limits assumed)
T2 construct: domain: CRH2
T2 sequence (looked up): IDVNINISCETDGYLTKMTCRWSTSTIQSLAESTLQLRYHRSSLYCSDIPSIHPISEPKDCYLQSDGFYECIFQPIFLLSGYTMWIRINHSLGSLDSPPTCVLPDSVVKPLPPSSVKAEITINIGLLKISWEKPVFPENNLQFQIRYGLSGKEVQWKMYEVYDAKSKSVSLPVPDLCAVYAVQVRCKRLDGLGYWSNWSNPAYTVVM

T3: extracellular domain of human LEPR (amino acids 22-839 of P48357, Isoform B) with N-terminal myc-myc tag, … (human, UniProt P48357 22-839, GPI anchor at the C-terminus)
T3 construct: also called HEK293/Mycx2-hLepR(Ecto)-GPI anchored cells
T3 sequence: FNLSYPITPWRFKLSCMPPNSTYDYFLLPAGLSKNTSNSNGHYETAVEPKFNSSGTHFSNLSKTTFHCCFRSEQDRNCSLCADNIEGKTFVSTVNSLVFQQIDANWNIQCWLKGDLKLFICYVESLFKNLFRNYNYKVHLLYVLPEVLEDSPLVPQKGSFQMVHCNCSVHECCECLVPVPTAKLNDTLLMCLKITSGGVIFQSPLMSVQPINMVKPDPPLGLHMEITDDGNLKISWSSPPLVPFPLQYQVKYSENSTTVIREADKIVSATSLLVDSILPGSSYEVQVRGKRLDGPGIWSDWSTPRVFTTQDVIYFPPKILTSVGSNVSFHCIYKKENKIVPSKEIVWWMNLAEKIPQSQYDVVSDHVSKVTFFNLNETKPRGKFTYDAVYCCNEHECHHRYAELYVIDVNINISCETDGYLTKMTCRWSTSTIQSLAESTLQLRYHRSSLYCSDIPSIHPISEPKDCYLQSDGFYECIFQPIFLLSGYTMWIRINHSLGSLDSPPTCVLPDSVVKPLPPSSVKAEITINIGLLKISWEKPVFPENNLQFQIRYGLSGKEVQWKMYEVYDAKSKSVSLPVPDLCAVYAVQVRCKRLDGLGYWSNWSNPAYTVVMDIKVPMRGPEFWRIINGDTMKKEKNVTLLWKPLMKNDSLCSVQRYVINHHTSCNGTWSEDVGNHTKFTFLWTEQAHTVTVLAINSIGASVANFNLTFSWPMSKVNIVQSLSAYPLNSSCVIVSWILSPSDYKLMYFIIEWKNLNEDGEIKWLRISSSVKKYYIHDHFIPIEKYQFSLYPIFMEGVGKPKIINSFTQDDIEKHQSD


Tests used:
[1] = target: T1, full length human LEPR (amino acids …); experiment: cell-based or functional assay
[2] = target: extracellular domain of Macaca fascicularis LEPR (amino acids 22-837 of XP_005543194.1, T827A) fused with the … (Macaca fascicularis; human); experiment: cell-based or functional assay
human LEPR CRH2-MMH = target: T2, human LEPR CRH2-MMH; experiment: Luminex, myc-captured protein on beads
In short: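 Read-out was median fluorescence intensity on a Luminex analyzer. Test mAbs at 0.5 or 5 µg/mL were incubated 2 h at 25 °C with a blocked pool (20 mg/mL BSA) of beads carrying myc-captured full-length or domain LEPR proteins. Capture from supernatants was also 2 h at 25 °C on anti-myc-coupled microspheres.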

[3] = target: T3, extracellular domain of human LEPR …; experiment: FACS, 70 nM Ab, HEK293/hLEPR-GPI, no Leptin

Row | Binder | % activation; IMR-32/LEPR with 200 pM human Leptin [1] [%] | % activation; IMR-32/LEPR without human Leptin [1] [%] | EC50 (M); IMR-32/LEPR with 200 pM human Leptin [1] [M] | EC50 (M); IMR-32/LEPR without human Leptin (STAT3-Luc reporter) [1] [M] | EC50 (M); STAT3-Luc reporter, IMR-32/STAT3-Luc/MfLEPR cells [2] [M] | Luminex MFI (human LEPR CRH2-MMH) [MFI] | Binding Ratio (normalized to unstained) [3] [fold]
1 | H4H17319P2 (antibody, V domains shown, also called REGN4461) VH: QVQLVESGGSVVQPGRSLRLSCAASGFTFSTYAMYWVRQTPGKGLEWVAVLYSDGSNKYYIDSVKGRFTISRDTSTNTLYLQMSSLRADDSALYYCARLNWDYWYFDLWGRGTLVTVSS VL: not shown | 76 | 68 | 1.91e-10 | 1.87e-10 | 3.65e-10 | 91 | 1130
2 | H4H18438P2 (antibody, V domains shown) VH: QVQLVESGGGVVQPGRSLRLSCAASGFSFNTYGMHWVRQAPGKGLEWVTIIWYDGSIKYYADSVKGRFTISRDNSKNTLYLQMNSLRAEDTAVYYCARGGYSGYLYFDYWGQGTLVTVSS VL: not shown | 76 | 5 | 2.02e-11 | 1.49e-09 | – | – | –
3 | H4H18449P2 (antibody, human IgG4, V domains shown, human IgG4 Fc) VH: EVQLVESGGGLVQPGGSLRLSCVASGFTFNKYDMHWVRQTTGKGLEWVSGIDTDGDTYYPGSVKGRFTISRENAENSLYLQMNGLRVGDTAVYYCARWPWSGFYGAFDIWGQGTMVTVSS VL: not shown | 66 | 13 | 5.23e-11 | 2.12e-10 | – | 15 | –
4 | H4H16679P2 (antibody, V domains shown) VH: QVQLVESGGGVVQPGRSLRLSCTASGFTFSSYAMYWVRQAPGKGLEWVSVIYYDGSYKYYADSVKGRFTISRDNSKNTLYLQMDSLRAEDTAVYYCASYNWNYWYFDFWGRGTLVTVSS VL: not shown | 88 | 65 | 7.37e-11 | 8.62e-11 | 2.49e-10 | 33 | 1080

Continued, values first:

Row | % activation; IMR-32/LEPR with 200 pM human Leptin [1] [%] | % activation; IMR-32/LEPR without human Leptin [1] [%] | EC50 (M); IMR-32/LEPR with 200 pM human Leptin [1] [M] | EC50 (M); IMR-32/LEPR without human Leptin (STAT3-Luc reporter) [1] [M] | EC50 (M); STAT3-Luc reporter, IMR-32/STAT3-Luc/MfLEPR cells [2] [M] | Luminex MFI (human LEPR CRH2-MMH) [MFI] | Binding Ratio (normalized to unstained) [3] [fold] | Binder
5 | 88 | 68 | 5.19e-11 | 6.19e-11 | 2.66e-10 | 16 | 707 | H4H16650P2 (antibody, V domains shown) VH: QVQLVESGGGVVQPGKSLRLSCVASGFTFSSDAMYWVRQAPGKGLEWVAVIYYDGNYQYYEDSVKGRFTISRDNSQNTLDLQMNSLRVDDTAVYFCARLNWDYWYLDLWGRGTLVTVSS VL: not shown
6 | 68 | 6 | 3.42e-11 | 3.73e-10 | – | 65 | – | H4H18446P2 (antibody, human IgG4, V domains shown, human IgG4 Fc) VH: EVQLVESGGGLVQPGGSLRLSCAASGFTFSNYGMTWVRQAPGKGLEWVSAITGGGGSTYYSNSVKGRFTISRDNSKNTVYLRMNSVRAEDTAVYYCAKYKWNFVDDWGQGTTVTVSS VL: not shown
7 | 87 | 5 | 5.23e-10 | 1.53e-10 | – | 39 | – | H4H18417P2 (antibody, V domains shown) VH: QVQLVESGGGVVQPGRSLRLSCAASGFTFSTYGMHWVRQAPGKGLEWVSVISYDESNKYYADSVKGRFTISRDNSKNALYLQMNSLRNEDTAVYYCARDRPFGLVTGWFDPWGQGTLVTVSS VL: not shown
8 | 76 | 66 | 2.57e-10 | 2.07e-10 | 3.68e-10 | 116 | 1130 | H4H17321P2 (antibody, V domains shown) VH: QVQLVESGGGVVQPGRSLRLSCEASGFSSSDNAMYWVRQAPGKGLEWVSVIYHDGSYKYYEDSVKGRFTIARDNSKNTLYLQMNSLRAEDTAVYYCARYNWNHWYFDVWGRGTLVTVSS VL: not shown
9 | 97 | 5 | 4.1e-10 | 1.19e-08 | – | 17 | – | H4H18445P2 (antibody, human IgG4, V domains shown, human IgG4 Fc) VH: QVQLQESGPGLVKPSQTLSLTCTVSGGSISSGGDYWSWIRQLPGKGLEWIGYIYYSGSAYYNPSLKSRGTISIDTSKNQFSLKLTSVTAADTAVYFCVKLRFLEWFLGGWFGPWGQGTLVTVSS VL: not shown
